Data published in IntAct's records for PubMed 18723617.

B1: Motility protein B (Salmonella typhimurium), P55892 (parent)
chain: MKNQAHPIVVVKRRRHKPHGGGAHGSWKIAYADFMTAMMAFFLVMWLISISSPKELIQIAEYFRTPLATAVTGGNRIANSESPIPGGGDDYTQQQGEVEKQPNIDELKKRMEQSRLNKLRGDLDQLIESDPKLRALRPHLKIDLVQEGLRIQIIDSQNRPMFKTGSAEVEPYMRDILRAIAPVLNGIPNRISLAGHTDDFPYANGEKGYSNWELSADRANASRRELVAGGLDNGKVLRVVGMAATMRLSDRGPDDAINRRISLLVLNKQAEQAILHENAESQNEPVSVLQQPAAAPPASVPTSPKAEPR
partner: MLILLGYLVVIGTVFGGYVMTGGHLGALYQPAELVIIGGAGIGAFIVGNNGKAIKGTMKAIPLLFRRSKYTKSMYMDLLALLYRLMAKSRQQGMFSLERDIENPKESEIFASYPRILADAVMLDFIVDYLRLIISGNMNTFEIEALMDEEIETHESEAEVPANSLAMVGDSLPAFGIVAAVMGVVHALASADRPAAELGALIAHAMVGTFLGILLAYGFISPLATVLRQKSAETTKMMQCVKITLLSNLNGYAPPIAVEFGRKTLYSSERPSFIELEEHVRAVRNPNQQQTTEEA

Variants of: B1
Details: with mota_salty motA

| Variant | effect of a mutation on the interaction |
| --- | --- |
| D33E | decreasing interaction strength |
